Laboratory results reported in EP4552657A1, “RADIOPHARMACEUTICAL COMPLEXES AND COMBINATIONS” (priority 2023, dated 2025).

Legend:
[1] = biological target: T1, human c-Met (Homo sapiens, UniProt P08581); test: Flow cytometry, cell surface binding on MKN-45 and HT-55 cells; details: compared to unconjugated Telisotuzumab
T1 construct: MKN-45 and HT-55 cells expressing human c-Met; endogenous in cells; host or cells: MKN-45, HT-55
Procedure: The in vitro binding properties of antibody-chelator conjugates were assessed in various relevant cell lines and compared to their corresponding unconjugated antibody. Briefly, samples were diluted in buffer (PBS/3% FBS) and added to relevant cell lines. After completion of the binding step (60 min at 4°C), the cells were washed and incubated with secondary antibody conjugated with phycoerythrin to detect antibodies containing a human IgG Fc region. After 60 min at 4°C, the cells were washed, and fluorescence on the cells was determined by flow cytometry using Guava EasyCyte 8HT (Luminex).
Cell surface binding of Telisotuzumab-macropa was compared to unconjugated Telisotuzumab and investigated by flow cytometry using MKN-45 and HT-55 cells expressing human c-Met (Figure 37).

[2] = biological target: GUCY2C (Homo sapiens, UniProt P25092); test: Immunoreactive fraction (IRF), binding to GUCY2C-coated beads
Procedure: Shortly after completion of the radiolabeling, the binding was assessed by measuring the fraction of radiolabeled antibody-chelator conjugate bound to relevant antigen coated magnetic beads (Thermo Fisher Scientific). In short, beads were placed in 2 mL Eppendorf tubes in 90 µL buffer (PBS/0.1% Tween 20/1% BSA). The radiolabeled compounds were diluted to 5 Bq/µL in buffer and 50 Bq were added to each bead-containing tube. The binding lasted for 60 min while shaking at 750 rpm at room temperature. After completion of the binding step, magnet (DynaMag-2) was used to separate the beads from […] supernatant. The radio activities in the supernatant and in the beads of each sample were measured using a high purity Germanium detector (Ortec). […] Total binding was defined as [(activity in beads […])/ (total activity)] × 100.
After completion of the radiolabeling, the binding Ac225-macropa-Indusatumab to GUCY2C-coated M270-carboxy Dynabeads was determined by IRF (as describe above).

[3] = test system: CHO cells stably expressing GUCY2C; details: 20 kBq/µg; 6 days; vs isotype control
Procedure: In vitro cytotoxicity of Ac-225-ACC was determined in cell lines expressing different levels of relevant target receptors. Cells were seeded at an appropriate cell density in relevant cell media. One day after seeding, the radiolabeled compounds at the specific activity of 2-20 kBq/µg and radioactive concentration of 50-100 kBq/ml were titrated in parallel with a radiolabeled isotype control. Cells were incubated for 5-6 days. Cell viability was determined by cell counting using Hoechst and PI staining and analyzed on Operetta CLS High Content Analysis System (Perkin Elmer) or by ATP measurements using CellTiterGlo (Promega).
The cells were seeded at an appropriate cell density in MEM Alpha + 10% FBS + 1x Glutamax + 0.5 mg/ml G418. […] Cells were treated for 6 days and subsequentially cell viability was determined using CellTiterGlo (Promega).

T1 sequence (P08581 25-1390): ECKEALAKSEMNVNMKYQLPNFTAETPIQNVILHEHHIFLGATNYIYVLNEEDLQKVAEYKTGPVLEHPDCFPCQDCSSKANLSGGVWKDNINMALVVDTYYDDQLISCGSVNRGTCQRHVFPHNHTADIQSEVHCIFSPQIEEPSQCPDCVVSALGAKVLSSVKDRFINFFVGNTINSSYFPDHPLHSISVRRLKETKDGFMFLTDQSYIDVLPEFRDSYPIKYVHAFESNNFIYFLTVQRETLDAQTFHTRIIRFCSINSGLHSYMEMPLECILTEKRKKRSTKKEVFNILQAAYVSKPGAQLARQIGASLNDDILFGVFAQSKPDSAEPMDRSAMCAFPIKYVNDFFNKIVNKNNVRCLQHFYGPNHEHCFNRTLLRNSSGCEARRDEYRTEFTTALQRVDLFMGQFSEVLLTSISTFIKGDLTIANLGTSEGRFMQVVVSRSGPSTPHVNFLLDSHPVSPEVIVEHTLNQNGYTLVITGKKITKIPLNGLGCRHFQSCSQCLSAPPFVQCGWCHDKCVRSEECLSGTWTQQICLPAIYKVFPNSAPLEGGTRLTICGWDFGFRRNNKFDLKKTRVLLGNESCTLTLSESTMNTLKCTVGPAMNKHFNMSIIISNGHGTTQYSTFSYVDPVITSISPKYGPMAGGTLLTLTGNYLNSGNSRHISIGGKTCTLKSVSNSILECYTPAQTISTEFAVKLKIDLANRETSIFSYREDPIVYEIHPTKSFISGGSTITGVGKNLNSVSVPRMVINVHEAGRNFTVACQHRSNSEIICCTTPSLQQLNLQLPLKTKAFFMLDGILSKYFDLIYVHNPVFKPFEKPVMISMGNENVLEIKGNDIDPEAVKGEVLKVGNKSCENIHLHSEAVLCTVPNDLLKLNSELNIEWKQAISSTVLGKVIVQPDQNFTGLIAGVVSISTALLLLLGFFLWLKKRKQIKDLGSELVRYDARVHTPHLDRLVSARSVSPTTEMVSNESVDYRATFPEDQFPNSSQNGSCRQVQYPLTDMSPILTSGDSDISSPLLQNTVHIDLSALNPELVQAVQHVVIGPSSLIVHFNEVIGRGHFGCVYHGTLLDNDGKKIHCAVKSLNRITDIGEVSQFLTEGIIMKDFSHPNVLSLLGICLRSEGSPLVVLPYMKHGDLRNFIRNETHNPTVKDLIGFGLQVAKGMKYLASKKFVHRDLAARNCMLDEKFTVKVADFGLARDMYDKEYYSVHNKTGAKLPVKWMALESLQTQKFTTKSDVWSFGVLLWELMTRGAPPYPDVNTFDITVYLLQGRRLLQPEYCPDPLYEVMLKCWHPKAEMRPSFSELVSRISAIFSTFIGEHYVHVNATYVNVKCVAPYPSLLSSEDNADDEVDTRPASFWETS

| Substance | EC50 [1] | amount of GUCY2C-coated beads at which maximal binding was achieved [2] | cytotoxicity [3] |
| --- | --- | --- | --- |
| Telisotuzumab-macropa | comparable EC50 in both cell lines as unconjugated Telisotuzumab |  |  |
| Ac-225-macropa-Indusatumab: Ac-225 macropa complex bound to the anti-GUCY2C monoclonal antibody Indusatumab |  | 7.5 µg | strong and specific cytotoxicity |
